Our source for the EC50 values is patent US20230111279A1.

The assay addresses Clec12A on cells (Clec12A over-expressing CHO-S cells; U937 cells endogenously expressing Clec12A) (UniProt Q5QGZ9). Description: flow cytometry, serial dilution, on U937 cells endogenously expressing Clec12A.

Clec12A on cells (Clec12A over-expressing CHO-S cells; U937 cells endogenously expressing Clec12A), sequence (Q5QGZ9 whole entry): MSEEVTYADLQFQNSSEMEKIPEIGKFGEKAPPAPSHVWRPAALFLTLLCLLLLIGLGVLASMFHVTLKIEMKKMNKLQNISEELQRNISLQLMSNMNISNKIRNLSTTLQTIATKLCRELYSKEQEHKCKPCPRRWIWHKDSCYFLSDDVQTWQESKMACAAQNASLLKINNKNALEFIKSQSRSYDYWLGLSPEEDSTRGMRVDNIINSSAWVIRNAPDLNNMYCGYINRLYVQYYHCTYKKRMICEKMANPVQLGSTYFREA

B1: anti-Clec12A antibody B (antibody, V domains shown)
VH: QVQLVESGGGVVQPGRSLRLSCAASGFTFSSYGMHWVRQAPGKGLEWVAVISYDGSDKYYVDSVKGRFTISRDNSKNTLYLHMNSLRAEDTAVYYCARDKGYYFDYWGQGTLVTVSS
VL: EIVMTQSPATLSLSPGERATLSCRASQSVGNRYLSWYQQKPGQAPRLLIYGASTRATGIPARFSGSGSGTDFTLTISSLQPEDFAVYYCQQDYNLPLTFGGGTKVEIK
For the molecule B1, the EC50 stood at 3.36 nM.

B2: anti-Clec12A antibody C (antibody, V domains shown)
VH: QVQLVESGGGVVQPGRSLRLSCAASGFTFSSYGMHWVRQAPGKGLEWVAVISYDGSDKYSADSVKGRFNISRDNSKNTLYLQMNSLRAEDTAVYYCARDGSRYFDYWGQGTLVTVSS
VL: EIFMTQSPATLSLSPGERATLSCRASQSVHSKYLSWYQQKPGQAPSLLIYGASTRATGIPARFSGSGSGTDFTLTISSLQPEDFAVYYCQQDYNLPITFGQGTRLEIK
On to B2, for which the EC50 turned out to be 3.35 nM.

B3: anti-Clec12A antibody A (antibody, V domains shown)
VH: QVQLQESGPGLVKPSETLSLTCTVSGGSISTYYWSWIRQPPGKGLEWIGYIYYSGSTKYNPSLKSRVTISVDTSKNLFSLKLSSVTAADTAVYYCAREDYYGSGSPFDYWGQGTLVTVSS
VL: IQMTQSPSSLSASVGDRVTITCRASQGIRYDLGWYQQKPGKAPKLLIYAASSLQSGVPSRFSGSGSGTDFTLTISSLQPEDFATYYCLQDYNFPRTFGQGTKVEIK
In turn, B3 registered an EC50 of 0.621 nM. This EC50 lies about 5.4-fold lower than the previous one.
